The data set in a line: label from the status in PepcDB records.
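Also: failed if final PepcDB status was selected cloned or expressed and not failed if soluble or beyond.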

In the case of “MAVMARHESYYGNTKPAKLNEEKVTRVRFYLHDTLSGQNPTAVRIAHANLTGGSASPVGFGSLFVIDDPLTVGPEKHSKEIGNGQGMYVSGCKDLSKFTIVMYADLAFTAGKFNGSSISIFSRNPVAEEVGEREIAIVGGRGKFRMARGFVKVKTNKIDMKTGDAVLRYDATVYHY”, the protein production result was “failed”. To “MAVRGVSLRQPYPREPRGWHQEWSLRRAMRMARAAYWESYSATATDFWMSAEFTSLYDADTPDDSVPLAPARDHDLTDSHAILQAHYAACWTEGRPFAVETKLIKPDGRLLDCVVHGEPEFDANGQVQRVFGIVRDATPETSALRQLAVSEQRLADFVSTASDWCWESGPDHRLLPYPKSLDGNAALQTVASGGKARWELAYAPDEEGSMALHRDDMEAHRPFRDFIYTSIGNDGSRIIISTSGKPIFADDGTFLGYRGTASDITQLAAARTLLDQRTGALEEAHRLGRIGTWTHRLDTGRTVWSPELYQLLGLEPDAFEPTYEGTEPYFLDDDAARLLKIQKRVLRTSTTEATDIRILHTDGTPRDLAIICKAEISNGNVIGLIGTAQDVTDRKEAERRLEQLAYTDPLTGLANRALYKRKLADLFENPMAEHGQNALYLIDLDRFKEVNDSLGHSTGDSLLIHVAGVLRQELGPQAFIARIGGDEFAVLTNSPNTSVEATTALADRLIAKLSVPVELAEGEACIGATIGIAILPEHGATAEKASRNADLALYMAKEAGRGRAQLFEPMYAEAVDQKLDLGRRLRHAVDSGGLNTHYQPQIDLKTGRVIGFEALLRWSHPERGPISPAEFIPIAETTGLIVDLGHWVLRDACKQMRGWLDAGLPARTISVNVSPAQIWNGDFEKVVATVLADTGLPPELLCLELTENLFVDHTKQKVSTTLAALSKLGIQLALDDFGSGYSSLGYLTRLPFNRLKIDRSFVDGIATVPEKRKLLGGIIALSHGLGMSVVAEGAELQAEVDLLAAFDCDFVQGYAFSKPVAADQAAVVAAEIERKPGR” belongs “failed”; to “MAVRVCCHAPPGVSNHLFTFCAGNLTTGFSGGSVTSQKGGAAGLPTCSRRCPRGCLPGSDPLPRHPRRYAPPVTPPVTPPTTPAPRSRARMLELVFPKDTNYHGTAFGGWVLALMDKAASVAAVRHAGGNVVTARMDGVDFHVPIRVGDAVALDARVIRVGRSSMTIRVDVYRENMASGEQQLATGGLFTFVALGEDGKPRPVPPLPEGSTDSEQPDYEARPLEHHHHHH”, “failed”. In the case of “MAVSPDDPLILVGRVAGGFGVRGEVRITTYTEDPLSIAGFKALKRQDGSPALTIASARKTKDGVVCRCPGVETKEAADALRGLRLYVPRSALPEPDDDEFYLTDLVGLTVRHIQTDQLLGRVKSVQNFGAGDILEITPDLGGPTWYLPFTRAAVPEVRVSEGLILADPPALVGDHEGPEEKGLDENEELGDRDLEHHHHHH”, the protein production result is “failed”. Turning to “MAVTISGVRKHSPAYRHGIQAGERLLTLNGNEIMDVLDYRFYQLNTALVLELENNRGERRTVSLKKPEYEEIGLEFETYLMDRQHSCKNKCVFCFIDQLPKGLRKSLYFKDDDSRLSFLFGNYVTLTNLTEHEISRIIKMHISPMNISVHTTNPELRVKMMKNPRAGEALSIIRRFAQAGIKINCQIVLCPGYNDGEELKRTLSDLETMCPQVQAVAVVPVGITRYRQNLPEMRSFTRETAGEAIDLIESFGEKCLQKYGTRVAYPGDEFYLKAERPLPPAGFYEDFSMLENGVGLLPLLMDEFYSALEEAGETGGRKREITIATGMAPREYIRGFLDDAIKKFPHISGRVTPIVNRFFGETITVSGLVTGTDLIEQLSSVDLGDELLIPACMLRREGDLFLDDVSLQDVEAALKVPVRPVPNDGYAFLDAILGSESLEHHHHHH”, the protein production result is given as “failed”. Then “MAVTLQQTLIDIDEEQLVFHLHNDQISYILGVETGNVLAHLYFGPRVRGYHGERQYPRIDRGFSGNLPNTTDRSYSKDDLPQEYGGNNTGDYRQPAAIIRAANGARTVDFRYQDCRMEAGKPELKGLPQTYVEDEDEAQTLIVTLRDATLGVTLELAYTIYRDRPVITRSARLINHSEQAVDLEKVASMQMDLPTQPLDAISLPGSYARERQLSRERLHRGVTQFESRRGASSHHMNPFVALADPNTNEFQGNVLGALLIYSGNHQISLERDPIGQTRLTMGINEYNFDWRLAAGDSFQTPEVAMVYSTTGLNGMSQTYHDLLRDRVARSRYKHDLRPILINNWEATYFDFDADKIQSILDAAAPLGIEMFVLDDGWFGHRNDDNSSLGDWFVNRNKLPGGLADISKRTHDKGMRFGLWFEPENISADSDLYRAHPDWVLGVPDRGRTLSRNEYVLDFSQPDVVDNIFEQMTAVLDKVPIDYIKWDMNRNLTEVYSPHSDSTHEGETSHRFILGVYDLMERLTKRYPQILFEGCSGGGGRFDAGLMYYMPQSWPSDNNDPIERLKIQYGTSLVYPISAITAHVGTSPDELLGRSTSMKMRGAVAMSGTLGYELDAAQLSDADKQAVKRQVAFYKQHRELVQYGTFYRLESPFESNTVAWMFVSPDQKEALLFTFVILGAVQPEPHITKLAGLDPQQTYVETDTNKMYGGDELMQLGLYTTPVQTSDFTAQVHYFKAKDLEHHHHHH”, with “failed”; and “MAVTPVLACYRTCDAAIGGITAWQVTTGPDGPRTNVVGSCPLGDASWVTPLYHLVVVLCERDGTLVVVHPGREFQVVGTVQLKGQWPCHGAVDPTGRLMAVADYASGQVEFVDLSDPTRPTVRNVLDLGQGCVFPRPVADRQEGPHAHQVTWLDRAHLAVTDLGADRINVVRWSEAGPEIIGSLKTPAGCGPRHLTLTEDGRKQILTVGGALSGTVSTWSRPTGHDMWAREWRFVQETASSRWSHTGSQERRSACTPASPSAIVTTPDGRHFVANRSVGSIGILGGRFGRINLIDEFDTTGANPRDITVTTQNGTRVWVALPEEGQIAIHLRDEDTGGWQVETTIDQPGAMRVIVGPTTG”, with “failed”. To “MAVYNPKPEFFRQAVLSVLGQTMPVLELVLVNDGGSDEFKSVLPDDDRIRVFTKPNEGVAATRNFAIKQCRGEYIAFLDQDDYWYSDKLAEQMAMISVKGEACMVISPVDIVDNQGVPIIKQNRKKVTNRYFRKIAHPDIRFPLADGNFIYSSTPLIHRRVFECVGLFDSFTQPHDDWDMYLRIALAGISVHCYRERALSVWRMHDSNESQKRMAMMLSKCEVEWKILQGGVPEPVAKIMHSNLALDQIVMDNLWYNEREFARFRETVRRDLPGLMRCAVNSGRHDRYVTGYRKRAASAIIKSARRYLLSLFSRQR” belongs “failed”; to “MAWFLLVIAGIEEIIAAIAMKYIDGTRKKWPIIVMTVGFGLSFYCLSQAMIVLPAGVAYAVWTGIGSIGVSAVGLIWFKERFQLSQVISLCLILAGVIGLRLTSSS”, “failed”; to “MAWGVCDINGSFAGQNPVTTRLSVRRCQWRCVDFAHSKCLRTQNYRVQMRSCRTGVYGSPRGDANEAVPPPHQPKGPLRTMPLETLINAGFVDYLILLIYFVFVLGIGLAARHQVSDSLDFFLSGRSLPGWVTGLAFVSANLGAVEIMGMSANGAQIGIPTVHYFWIGAIPAMVFLGIVMMPFYYGSGVRSVPEFMLKRFGPAAHLVNAISFALAQLLIAGINLYLLGTIVHALLGWPLWVALIVAAMIVLAYISLGGLSAAIYNEVLQFFVIVASLLPLVIIGLHRVGGWSGLKAKITAAAEAHPDVVTPAAQQLHSWPGQALSGFGSPVMSVIGITLGLGFVLSFGYWTTNFVEVQRAMASDSLSSARKTPTIGAFPKMLVPFLTVLPGMLAAVLVPEIARMKAGEKVAGGASGSFVQYNDSVLFLIRNLLPTGLTGVAITGLLAAFMAGMAANISAFNTVFSVDIWQHYVIKDKPDGYYVKVGRIATVIATVVAIGTAFMASGFSNIMDYLQTLFGFFNAPLFATFILGMFWKRSTPHAGWSGLVVGTLSAVTVWVMSLAGVFTLPGQGTAFLAATVGFVADIIVSIVVSLFTEPKPAAELVRLVYSETPKEHLVDPLEKDLPWYRRTVPLGMTVLAITVVLNIIF”, “failed”. To “MAYGDKDEVLSVDVGSNAKVMKHLDGDDAMKKAQVRGRSGQEFSKETTKMMMKKTTKKETNVEEEDDLVAYTADYWKPRHHPPKNN” belongs “failed”; to “MAYGTYRGLFAPEVAGPLAKLLVLLLVGYGLYQNRHLKSLYLVLLGLLLNALVIFANGGHMPVSPTALHRAGIGEFADLLRDKGDAVHALLDEKTRLPFLGDVIPLPPLRKVVSPGDLFILLGIVGVVVEGALKGGVRLRRRALALRLLLYLAFVLALLALRG”, “failed”. As to “MAYLAPISSSLSIFKNPQLSRFQFSSSSPNPLFLRPRIQILSMTMNKSPSLVVVAATTAAEKQKKRYPGESKGFVEEMRFVAMRLHTKDQAKEGEKETKSIEERPVAKWEPTVEGYLRFLVDSKLVYDTLELIIQDSNFPTYAEFKNTGLERAEKLSTDLEWFKEQGYEIPEPTAPGKTYSQYLKELAEKDPQAFICHFYNIYFAHSAGGRMIGRKVAERILDNKELEFYKWDGELSQLLQNVREKLNKVAEEWTREEKNHCLEETEKSFKYSGEILRLILS”, the protein production result is given as “failed”. In the case of “MCCPPMTSSSSLSHHASQSGQVRLCPGCELPIDAITVDQAHSAHCPRCGTLLYRGGSPSLSGDLALAVTCLLLFIPSHFFSYIDIRLFGVMIPATLPQGVFALWDEGYIALALLVLFCSSIAPLVLCLSVVSAHLALRFRYFQTLRYSLLFIHHLKVWVMIDVFLVSVAVSCFKLKDYSDIFIGPGLLGLVLLQLFTVLLLSRISTRRYWETWQAETEYDLPVKQVHCHNCHLSQPENGHCVRCQHKLYHRKPNSIERTWAYVLAATVAIFPANLIPISILITNGQRLEDTIFSGVASLVKNGMWGIALIIFVASIVVPVIKIIGLAYLLMAIKLKRHVHQRQRMMIYRGIKWIGKWSVMDLFVISIMLTLVDRGQILDFTPGYGAVAFGMVVVLTMLAAESLDPRLLWDEPDSTRTQQ”, the protein production entry is “failed”. Then “MCDCLSIILLVKMKKIYLKFVDFWDGFDTISNFIVDALSIQYEVVLSNEPDYLFYSCFGTSHLEYDCIKIMFIGENIVPDFNVCDYAIGFNYIDFGDRYLRLPLYAIYDGFSNLQNKKIDVNKALDRKFCSIVVSNNKWADPIRETFFKLLSSYKKVDSGGRAWNNIGGPVDNKLDFISQYKFNIAFENSRVLGYTTEKIMEPMQVNSIPVYWGNPLVGKDFNVDSFVNAHDFDSLERLVEYIIELDSSKDKYLEMLEKPWLLDKTYLDWKQLLLNFINNIMMKSYKDAKYLVNYGHAGKYRNEQRFWGRCERKFKLQRIIEYYSQLFDRKLEHHHHHH”, with “failed”; and “MCDFISHNKQLFDELDIFIDSLATKEGALIQVLHEAQGIFGYLPKEVQLHVARKLGVAPAKVYGVVTFYSYFTTEPVGKYKISVCLGTVCFVKGADKILSAFEKQLGIKVGETTSDFKFSLEGLRCLGACGLAPVVTVNGKVYGKVKPDQVSEILDTYRELELNC”, with “failed”; and “MCDQTKHSKCCPAKGNQCCPPQQNQCCQSKGNQCCPPKQNQCCQPKGSQCCPPKHNHCCQPKPPCCIQARCCGLETKPEVSPLNMESEPNSPQTQDKGCQTQQQPHSPQNESRPSK”, with “failed”.

As for “MCEIFIRANQRSYSVQARSLRLHGVATSVRLEQLFWDVLEEIAARDGMRVTQLIERLYDELVQYRGEAANFTSFLRVCCLRYQVLQAEGRIPADATVPIRSLDAQAVLRGLPANLYDSRPLG”, the protein production result was “not failed”.

The values above are taken from a protein production outcome set (Wang et al. 2014).
